Source: patent US20150191542A1 (INNATE PHARMA S A, published 2015)
Substitutions are numbered along the chain they refer to. Like-named read-outs stand apart in the source and are kept apart here. Blank lines part the entries; values can stand above or below the binder they belong to.

Columns and labels:
[1] = biological target: T1, recombinant human MICA extracellular domain recombinant-Fc protein (MICA*019 allele) (human, UniProt Q29983 24-297); experiment: SPR Biacore T100 (FIG. 1)
T1 construct: Bought from R&D Systems; also called MICA*019-Fc; MICA-Fc; not shown: Fc part of the bought fusion protein (R&D Systems)
T1 chain: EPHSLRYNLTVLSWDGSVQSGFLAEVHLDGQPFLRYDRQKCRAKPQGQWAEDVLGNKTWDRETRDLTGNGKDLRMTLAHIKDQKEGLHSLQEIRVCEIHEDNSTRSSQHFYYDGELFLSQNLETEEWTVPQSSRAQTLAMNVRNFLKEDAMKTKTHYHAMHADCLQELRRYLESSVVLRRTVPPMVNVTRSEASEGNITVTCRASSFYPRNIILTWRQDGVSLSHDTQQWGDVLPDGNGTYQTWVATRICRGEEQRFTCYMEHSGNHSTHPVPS
Description: The binding of 9C10, 20C6 and 16A8 to either recombinant human MICA extracellular domain recombinant protein monomers or dimers (MICA*019 allele-Fc protein or MICA*001-His protein) as well as other NKG2D ligands MICB and ULBP1-2 was analyzed by Surface Plasmon Resonance (SPR) using a Biacore T100 apparatus to obtain monovalent and bivalent affinity, respectively. Biotinylated anti-MICA antibodies were injected at a constant rate of 10 μl/min over the Sensor Chip CAP flow-cells comprising Biotin CAPture Reagent. MICA-Fc or MICA-His protein, MICB-Fc, ULBP1-Fc or ULBP2-Fc protein is then injected successively (range of concentrations between 0.01-100 nM), with regeneration between injections, and in increasing order over two flowcells simultaneously. Curves are fitted using Biacore T100 Evaluation software.
(a) General Biacore T100 methods. SPR measurements were performed on a Biacore T100 apparatus (Biacore GE Healthcare) at 25° C. In all Biacore experiments HBS-EP+ buffer (Biacore GE Healthcare) or 10 mM sodium acetate pH 7.4, 150 mM NaCl, 0.05% P20 served as running buffer and sensorgrams were analyzed with Biaevaluation 4.1 and Biacore T100 Evaluation software. Recombinant human and mouse TLR3 were purchased from R&D Systems.

[2] = biological target: T2, MICA*001 expressed on transfected cells (human); experiment: flow cytometry on C1R-MICA*001 cells, 3-parameter logistic fit
T2 construct: the cells carry the complete allele; also called C1R-MICA*001; C1R-MICA*01
T2 chain: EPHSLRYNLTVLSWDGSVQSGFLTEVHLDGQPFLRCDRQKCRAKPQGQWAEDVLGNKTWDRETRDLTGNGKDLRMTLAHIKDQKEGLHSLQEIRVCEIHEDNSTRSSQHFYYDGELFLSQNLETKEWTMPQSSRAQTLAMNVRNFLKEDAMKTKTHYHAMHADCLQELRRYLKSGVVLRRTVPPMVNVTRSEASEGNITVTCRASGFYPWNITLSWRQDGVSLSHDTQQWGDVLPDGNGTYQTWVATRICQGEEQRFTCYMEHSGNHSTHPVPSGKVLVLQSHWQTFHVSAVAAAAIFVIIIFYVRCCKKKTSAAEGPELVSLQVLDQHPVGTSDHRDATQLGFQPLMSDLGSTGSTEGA
Description: (§1) The binding of antibodies obtained from the first and second immunization series (including 9C10, 20C6 and 16A8) were tested for binding to MICA-expressing CR1 transfectant cells C1R-MICA*001, C1R-MICA*004, C1R-MICA*007 and C1R-MICA*008 (Pr. A. Steinle, Eberhard-Karls University Tuebingen, Germany) described in Salih et al. (2003) Blood 102(4): […]. Binding was analyzed by flow cytometry.
(§2) Cells were harvested and stained in PBS 1×/BSA 0,2%/EDTA 2 mM buffer during 30 minutes at 4° C. using a dose-range of the anti-MICA mAbs. After two washes in staining buffer, cells were stained for 30 min at 4° C. with goat anti-mouse (H+L)-PE polyclonal antibodies (1/200). After two washes, stainings were acquired on a BD FACS Canto II and analyzed using the FlowJo software.
(§3) Antibodies 9C10, 20C6 and 16A8 bound to each of the C1R-MICA*001, C1R-MICA*004, C1R-MICA*007 and C1R-MICA*008 cells (see FIGS. 3A, 3B and 3C for antibodies 9C10, 20C6 and 16A8 respectively). […] EC50 values are shown in Table C in μg/ml (calculated using a 3-parameter logistic fit).

[3] = biological target: T3, MICA*004 expressed on C1R transfectant cells (human, UniProt Q29983 24-297, Glycosylated on cells; the letters do not carry this.); experiment: flow cytometry on C1R-MICA*004 cells, 3-parameter logistic fit
T3 construct: also called C1R-MICA*004; C1R-MICA*04
T3 chain: T1 chain with L122V, T181R, I213T, R251Q
Description: as §1, §2, §3

[4] = biological target: T4, MICA*007 expressed on C1R transfectant cells (human, UniProt Q29983 24-297, Glycosylated on cells; the letters do not carry this.); experiment: flow cytometry on C1R-MICA*007 cells, 3-parameter logistic fit
T4 construct: also called C1R-MICA*007; C1R-MICA*07
T4 chain: T1 chain with Y36C, V129M, E173K, S175G, S206G, R210W, I213T, T215S, R251Q
Description: as §1, §2, §3

[5] = biological target: T5, MICA*008 expressed on C1R transfectant cells (human, UniProt Q29983 24-297, Glycosylated on cells; the letters do not carry this.); experiment: flow cytometry on C1R-MICA*008 cells, 3-parameter logistic fit
T5 construct: also called C1R-MICA*008; C1R-MICA*08
T5 chain: T1 chain with S175G
Description: as §1, §2, §3

[6] = biological target: T2, MICA*001 expressed on transfected cells; experiment: flow cytometry, MFI against antibody concentration on C1R-MICA*01 cells
Description: as §1, §2

[7] = biological target: T3, MICA*004 expressed on C1R transfectant …; experiment: flow cytometry, MFI against antibody concentration on C1R-MICA*04 cells
Description: as §1, §2

[8] = biological target: T4, MICA*007 expressed on C1R transfectant …; experiment: flow cytometry, MFI against antibody concentration on C1R-MICA*07 cells
Description: as §1, §2

[9] = biological target: T5, MICA*008 expressed on C1R transfectant …; experiment: flow cytometry, MFI against antibody concentration on C1R-MICA*08 cells
Description: as §1, §2

[10] = biological target: T3, MICA*004 expressed on C1R transfectant …; experiment: flow cytometry, MFI against antibody concentration on C1R-MICA*04 cells
[11] = biological target: T4, MICA*007 expressed on C1R transfectant …; experiment: flow cytometry, MFI against antibody concentration on C1R-MICA*07 cells
[12] = biological target: T5, MICA*008 expressed on C1R transfectant …; experiment: flow cytometry, MFI against antibody concentration on C1R-MICA*08 cells

B3: CHG1-M-MIA-10F3 (antibody, V domains shown)
VH: QVQLQQSAAELARPGASVKMSCKASGYTFTSYTMHWVKQRPGQGLEWIGYINPSSGYTEYNQKFKDKTTLTVDKSSTTSYMQLSSLTSDNSAVYYCARGGDWDVDWFVYWGQGTLVTVSA
VL: QIVLTQSPAIMSASPGEKVTITCSASSSISYMHWFQQKPGTSPKLWIYSTSKLASGVPARFSGSGSGTSHSLTISRMEAEDAATYYCQHRSTYPFTFGSGTKLEIK
EC50 (read off the curve) [6]: ~0.5 µg/mL

B4: CHG1-M-MIA-12A10 (antibody, V domains shown)
VH: QVQLQQSGADLVRPGASVRLSCRASGYSFTNYWMNWVKQRPGQGLEWIGMIHPSDSETRLNQKFKDKATLTVDKSSNTAYMQLSSPTSEDSAIYYCARDDFFTMDYWGQGTSVTVSS
VL: DILLTQSPAILSVSPGERVSFSCRASQNIVTSIHWYQQSTNGSPRLLIKYASESISGIPSRFSGSGSGTDFTLTINSVESEDVADYYCQQSNIWPLTFGAGTKLELK
EC50 (read off the curve) [6]: ~1 µg/mL

B5: CHG1-M-MIA-15F9 (antibody, V domains shown)
VH: DVQLQESGPDLVKPSQSLSLTCTVTGYSITSGYSWHWIRQFPGNKLEWMGFIHYSGSTDYNPSLKSRISLTRDTSKNQFFLQLNSVSTEDTATYYCAKDYGHWYFDVWGAGTTVTVSS
VL: SIVMTQTPKFLLVSAGDRVTITCKASQSVSYDVAWYQQKPGQSPKLLIFYASNRYTGVPARFTGSGYGTDFTFTISTVQAEDLAVYFCQQDYSSLTFGAGTKLELK
EC50 (read off the curve) [10]: ~0.5 µg/mL
binding result [11]: binds
EC50 (read off the curve) [12]: ~0.8 µg/mL

The next lines start with the values.

binding result [1]: binds
EC50 [2]: 0.3 µg/mL
EC50 [3]: 0.08 µg/mL
EC50 [4]: 1.58 µg/mL
EC50 [5]: 0.17 µg/mL
EC50 (read off the curve) [6]: ~0.3 µg/mL
EC50 (read off the curve) [7]: ~0.07 µg/mL
EC50 (read off the curve) [8]: ~0.5 µg/mL
EC50 (read off the curve) [9]: ~0.2 µg/mL
B1: antibody 20C6 (antibody, V domains shown)
VH: QITLKESGPGILKPSQTLSLTCSFSGFSLSTSGMGVGWIRQPSGKGLEWLAHIWWDDDKYYNPSLKSQLTISKDTSRNQVFLRITSVDTADTATYYCARRTQGYFDYWGQGTTLTVSS
VL: DIVMTQSPATLSVTPGDRVSLSCRASQSISDYLHWYQQKSHESPRLLIKYASQSISGIPSRFSGSGSGSDFTLSINSVEPEDVGVYYCQNGHSFPWTFGGGTKLEIK
notes: Murine hybridoma antibody of IgG1 isotype as tested

EC50 (read off the curve) [6]: ~0.5 µg/mL
B2: CHG1-M-MIA-18E8 (antibody, V domains shown)
VH: DVQLQESGPDLVNPSQSLSLICTVTGYSITSDYSWHWIRQFPGNKLEWMGNIHYSGRINYNPSLRSRISITRDTSKNQFFLQLISVTTEDTATYYCATRRTFGNFEDYWGQGTTLTVSS
VL: QIVLSQSPATLSVSPGEKVTMTCRSSSSVNYMHWYQQKPGSSPKPWIYATSTLASGVPARFSGSGSGTSYSLTISRVEAEDAATYYCQQWSSNPLTFGAGTKLELK
